# T1: DDX1 (DDX1-728) (Homo sapiens, UniProt Q92499 1-728)
# T1 sequence: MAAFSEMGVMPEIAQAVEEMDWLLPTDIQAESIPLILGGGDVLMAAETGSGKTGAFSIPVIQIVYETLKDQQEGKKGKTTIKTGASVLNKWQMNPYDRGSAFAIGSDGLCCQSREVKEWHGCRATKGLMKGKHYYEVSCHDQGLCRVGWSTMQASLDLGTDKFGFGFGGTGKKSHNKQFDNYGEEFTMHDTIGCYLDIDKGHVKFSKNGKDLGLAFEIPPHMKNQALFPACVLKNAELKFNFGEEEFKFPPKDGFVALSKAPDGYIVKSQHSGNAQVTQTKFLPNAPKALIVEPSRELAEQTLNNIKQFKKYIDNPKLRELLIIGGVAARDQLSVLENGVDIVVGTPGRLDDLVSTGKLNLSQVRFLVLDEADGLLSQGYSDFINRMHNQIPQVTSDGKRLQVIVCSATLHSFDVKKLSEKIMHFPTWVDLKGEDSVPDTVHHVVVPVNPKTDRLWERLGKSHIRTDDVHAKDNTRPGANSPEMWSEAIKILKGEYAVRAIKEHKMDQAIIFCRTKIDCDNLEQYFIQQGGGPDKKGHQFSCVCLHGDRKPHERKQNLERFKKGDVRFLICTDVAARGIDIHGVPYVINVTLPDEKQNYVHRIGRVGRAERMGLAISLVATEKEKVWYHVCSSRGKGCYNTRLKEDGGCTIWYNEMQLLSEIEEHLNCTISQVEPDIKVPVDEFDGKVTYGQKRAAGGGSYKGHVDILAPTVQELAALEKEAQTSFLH
# Key:
# [1] = molecular target: T1, DDX1 (DDX1-728); test: mantdADP displacement fluorescence titration, global fit
# [2] = molecular target: T1, DDX1 (DDX1-728); test: EMSA
Binder,Kd [1],binding result [2]
AAAAAAAAAA (ssRNA) [10mer polyA RNA],360 ± 120 nM,–
"UUUUUUUUUU (ssRNA) [10mer polyU RNA, FAM]",–,binds
"AGCACCGUAAAGA (ssRNA) [13mer mixed sequence RNA, FAM]",–,binds
